Experimental data reported in patent publication EP3177737B1 (Arizona Board of Regents on behalf of the University of …, dated 2020).

target: T1, human melanocortin 3 receptor (human, UniProt P41968 1-323); experiment: assay not given; taken as the competition binding assay on HEK293 cells
T1 construct: whole, on cells; also called hMC3R; hMC3 receptor
T1 sequence (P41968 whole entry): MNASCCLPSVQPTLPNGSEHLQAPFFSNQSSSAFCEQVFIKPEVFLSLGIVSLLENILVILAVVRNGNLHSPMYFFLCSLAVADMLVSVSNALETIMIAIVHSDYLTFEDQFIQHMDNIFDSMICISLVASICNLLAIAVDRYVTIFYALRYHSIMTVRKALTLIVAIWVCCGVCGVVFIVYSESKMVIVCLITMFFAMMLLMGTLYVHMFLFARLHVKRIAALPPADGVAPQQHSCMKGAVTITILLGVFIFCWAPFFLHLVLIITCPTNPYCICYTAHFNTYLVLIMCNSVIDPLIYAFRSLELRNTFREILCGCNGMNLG

Row | binding affinity [nM] | Binder
1 | 15 | LDHXRWK (N-terminal acetyl; Nle at 4; D-Nal(2') (nal) at 7; Asp5-Lys10 side-chain lactam ring; C-terminal amide; backbone N-methyl on His6 and Arg8 (alpha-MSH numbering 4-10)) [Peptide 15: Ac-Nle-c[Asp-(NMe)His-nal-(NMe)Arg-Trp-Lys]-NH2]

target: T2, human melanocortin 1 receptor (human, UniProt Q01726 1-317); experiment: competition with [125I]-NDP-alpha-MSH on A375 human melanoma cells
T2 construct: whole, on cells; also called hMC1R; hMC1 receptor
T2 sequence (Q01726 whole entry): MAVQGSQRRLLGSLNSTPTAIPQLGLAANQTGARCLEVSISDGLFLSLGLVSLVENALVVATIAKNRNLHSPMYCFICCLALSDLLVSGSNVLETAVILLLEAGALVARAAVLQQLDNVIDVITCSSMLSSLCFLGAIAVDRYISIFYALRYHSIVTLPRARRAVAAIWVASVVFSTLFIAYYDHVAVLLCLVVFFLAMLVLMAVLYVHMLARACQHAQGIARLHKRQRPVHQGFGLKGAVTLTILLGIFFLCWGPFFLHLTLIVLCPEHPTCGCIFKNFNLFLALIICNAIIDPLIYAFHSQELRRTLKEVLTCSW

Row | IC50 [nM] | Binder
2 | 14.8 | LDHXRWK (N-terminal acetyl; Nle at 4; D-Nal(2') (nal) at 7; Asp5-Lys10 side-chain lactam ring; C-terminal amide; backbone N-methyl on His6 and Arg8 (alpha-MSH numbering 4-10)) [Peptide 15: Ac-Nle-c[Asp-(NMe)His-nal-(NMe)Arg-Trp-Lys]-NH2]

target: T2, human melanocortin 1 receptor; experiment: competition with [125I]-NDP-alpha-MSH on whole HEK293 cells expressing the receptor

Row | IC50 [nM] | Binder
3 | 68 | LDHXRWK (N-terminal acetyl; Nle at 4; D-Nal(2') (nal) at 7; Asp5-Lys10 side-chain lactam ring; C-terminal amide; backbone N-methyl on His6, nal7, Arg8, Trp9 and Lys10 (alpha-MSH numbering 4-10), NO; 32; No. 32 to the hMC1R antagonist)

target: T3, human melanocortin 5 receptor (human, UniProt P33032 1-325); experiment: as above
T3 construct: whole, on cells; also called hMC5R; hMC5 receptor
T3 sequence (P33032 whole entry): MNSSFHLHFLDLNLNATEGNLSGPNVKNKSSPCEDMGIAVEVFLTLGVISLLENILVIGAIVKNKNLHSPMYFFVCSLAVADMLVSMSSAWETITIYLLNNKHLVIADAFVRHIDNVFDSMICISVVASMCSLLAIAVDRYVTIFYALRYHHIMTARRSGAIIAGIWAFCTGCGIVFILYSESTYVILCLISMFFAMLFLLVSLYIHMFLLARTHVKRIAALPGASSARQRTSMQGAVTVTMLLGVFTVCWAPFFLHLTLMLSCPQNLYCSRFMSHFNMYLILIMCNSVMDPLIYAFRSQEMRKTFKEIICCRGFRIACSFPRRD

Row | Binder | binding result
4 | LDHXRWK (N-terminal acetyl; Nle at 4; D-Nal(2') (nal) at 7; Asp5-Lys10 side-chain lactam ring; C-terminal amide; backbone N-methyl on Arg8 and Lys10 (alpha-MSH numbering 4-10)) [Peptide 8: Ac-Nle-c[Asp-His-nal-(NMe)Arg-Trp-(NMe)Lys]-NH2] | binds
5 | LDHXRWK (N-terminal acetyl; Nle at 4; D-Nal(2') (nal) at 7; Asp5-Lys10 side-chain lactam ring; C-terminal amide; backbone N-methyl on His6 and Arg8 (alpha-MSH numbering 4-10)) [Peptide 15: Ac-Nle-c[Asp-(NMe)His-nal-(NMe)Arg-Trp-Lys]-NH2] | binds
6 | LDHXRWK (N-terminal acetyl; Nle at 4; D-Nal(2') (nal) at 7; Asp5-Lys10 side-chain lactam ring; C-terminal amide; backbone N-methyl on Lys10 (alpha-MSH numbering 4-10)) [Peptide 2: Ac-Nle-c[Asp-His-nal-Arg-Trp-(NMe)Lys]-NH2] | binds
7 | LDHXRWK (N-terminal acetyl; Nle at 4; D-Nal(2') (nal) at 7; Asp5-Lys10 side-chain lactam ring; C-terminal amide; backbone N-methyl on His6, Trp9 and Lys10 (alpha-MSH numbering 4-10)) [Peptide 19: Ac-Nle-c[Asp-(NMe)His-nal-Arg-(NMe)Trp-(NMe)Lys]-NH2] | binds
8 | LDHXRWK (N-terminal acetyl; Nle at 4; D-Nal(2') (nal) at 7; Asp5-Lys10 side-chain lactam ring; C-terminal amide; backbone N-methyl on His6 and Lys10 (alpha-MSH numbering 4-10)) [Peptide 10: Ac-Nle-c[Asp-(NMe)His-nal-Arg-Trp-(NMe)Lys]-NH2] | binds
9 | LDHXRWK (N-terminal acetyl; Nle at 4; D-Nal(2') (nal) at 7; Asp5-Lys10 side-chain lactam ring; C-terminal amide; backbone N-methyl on Arg8 (alpha-MSH numbering 4-10)) [Peptide 4: Ac-Nle-c[Asp-His-nal-(NMe)Arg-Trp-Lys]-NH2] | binds
10 | LDHXRWK (N-terminal acetyl; Nle at 4; D-Nal(2') (nal) at 7; Asp5-Lys10 side-chain lactam ring; C-terminal amide; backbone N-methyl on His6 and nal7 (alpha-MSH numbering 4-10)) [Peptide 16: Ac-Nle-c[Asp-(NMe)His-(NMe)nal-Arg-Trp-Lys]-NH2] | binds
11 | LDHXRWK (N-terminal acetyl; Nle at 4; D-Nal(2') (nal) at 7; Asp5-Lys10 side-chain lactam ring; C-terminal amide; backbone N-methyl on Trp9 and Lys10 (alpha-MSH numbering 4-10)) [Peptide 7: Ac-Nle-c[Asp-His-nal-Arg-(NMe)Trp-(NMe)Lys]-NH2] | binds

More lines, now with the values ahead:

Row | binding result | Binder
12 | binds | LDHXRWK (N-terminal acetyl; Nle at 4; D-Nal(2') (nal) at 7; Asp5-Lys10 side-chain lactam ring; C-terminal amide; backbone N-methyl on His6, Arg8, Trp9 and Lys10 (alpha-MSH numbering 4-10)) [Peptide 28: Ac-Nle-c[Asp-(NMe)His-nal-(NMe)Arg-(NMe)Trp-(NMe)Lys]-NH2]
13 | binds | LDHXRWK (N-terminal acetyl; Nle at 4; D-Nal(2') (nal) at 7; Asp5-Lys10 side-chain lactam ring; C-terminal amide; backbone N-methyl on His6 (alpha-MSH numbering 4-10)) [Peptide 6: Ac-Nle-c[Asp-(NMe)His-nal-Arg-Trp-Lys]-NH2]
14 | binds | LDHXRWK (N-terminal acetyl; Nle at 4; D-Nal(2') (nal) at 7; Asp5-Lys10 side-chain lactam ring; C-terminal amide; backbone N-methyl on Arg8 and Trp9 (alpha-MSH numbering 4-10)) [Peptide 11: Ac-Nle-c[Asp-His-nal-(NMe)Arg-(NMe)Trp-Lys]-NH2]
15 | binds | LDHXRWK (N-terminal acetyl; Nle at 4; D-Nal(2') (nal) at 7; Asp5-Lys10 side-chain lactam ring; C-terminal amide; backbone N-methyl on nal7 and Arg8 (alpha-MSH numbering 4-10)) [Peptide 14: Ac-Nle-c[Asp-His-(NMe)nal-(NMe)Arg-Trp-Lys]-NH2]
16 | binds | LDHXRWK (N-terminal acetyl; Nle at 4; D-Nal(2') (nal) at 7; Asp5-Lys10 side-chain lactam ring; C-terminal amide; backbone N-methyl on Trp9 (alpha-MSH numbering 4-10)) [Peptide 3: Ac-Nle-c[Asp-His-nal-Arg-(NMe)Trp-Lys]-NH2]
